Test results as given in patent US20180155451A1 (published 2018).

T1: FcγRIIb extracellular domain with C-terminal His tag (human, UniProt P31994 43-217)
T1 construct: extracellular domain; Soluble receptor expressed in FreeStyle293 cells, used as analyte in Biacore; also called FcgRIIb; 2b; not shown: His tag at the C terminus
T1 sequence (looked up): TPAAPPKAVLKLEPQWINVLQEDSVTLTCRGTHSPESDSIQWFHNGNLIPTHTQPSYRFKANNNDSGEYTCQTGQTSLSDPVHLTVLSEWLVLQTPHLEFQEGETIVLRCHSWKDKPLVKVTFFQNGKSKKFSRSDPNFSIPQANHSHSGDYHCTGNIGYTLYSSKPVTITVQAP


Key:
[1] = target: T2, FcγRIIIa extracellular domain with C-terminal His tag (human, UniProt P08637 17-208); experiment: SPR; He/Con_3a divided by He/Con_2b (FcγRIIIa over FcγRIIb)
T2 construct: extracellular domain; also called FcgRIIIa; 3a; not shown: His tag at the C terminus
T2 sequence (P08637 17-208): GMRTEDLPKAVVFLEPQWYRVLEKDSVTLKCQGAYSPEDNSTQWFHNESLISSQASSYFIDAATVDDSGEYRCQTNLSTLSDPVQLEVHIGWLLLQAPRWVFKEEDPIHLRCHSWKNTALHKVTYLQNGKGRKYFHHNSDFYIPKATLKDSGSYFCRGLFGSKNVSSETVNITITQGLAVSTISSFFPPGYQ
Method: (§1) Analysis of interaction between objective antibody and the FcγR was carried out using Biacore T100 (GE Healthcare). HBS-EP+ (GE Healthcare) was used as the running buffer, and the measurement temperature was set to 25° C. Chips produced by immobilizing the antigen peptide by the amine coupling method to a Series S Sencor Chip CM5 (GE Healthcare), or alternatively, chips produced by allowing preliminarily biotinylated antigen peptides to interact with and immobilize onto a Series S Sensor Chip SA (certified) (GE Healthcare) were used. Antibodies of interest were captured onto an antigen peptide-immobilized chip, and allowed to interact to each FcγR diluted with running buffer. To regenerate and repeatedly use the chip, the antibodies captured on the chip were washed off by reacting 10 mM glycine-HCl, pH 1.5.
(§2) The FcγR-binding activity of each antibody was assessed primarily using as an indicator the FcγR-binding activity and dissociation constant for FcγR.

[2] = target: T2, FcγRIIIa extracellular domain with …; experiment: SPR (Biacore), antibody captured on antigen peptide chip, FcγR as analyte
Method: as §1, §2

[3] = target: T1, FcγRIIb extracellular domain with …; experiment: as above
Method: as §1, §2

| He_3a/2b (IIIa/IIb) [1] | He/Con_3a [2] | He/Con_2b [3] | Binder |
| --- | --- | --- | --- |
| 0.31 ratio | 53.4 relative binding (GpH7-A5/GpH7-B3/GpL16-k0 = 100) | 172 relative binding (GpH7-A5/GpH7-B3/GpL16-k0 = 100) | GpH7-A5/GpH7-B3 variant L328_10E/GpL16-k0 (antibody, human IgG1, kappa, Heterodimerized anti-glypican-3 IgG1; L328E (EU) only in the GpH7-B3 chain; also called He Ab) heavy 1: not shown heavy 2: not shown light: DIVMTQSPLSLPVTPGEPASISCQASESLVHSNRNTYLHWYLQKPGQSPQLLIYKVSNRFSGVPDRFSGSGSGTDFTLKISRVEAEDVGVYYCSQNTHVPPTFGQGTKVEIERTVAAPSVFIFPPSDEQLKSGTASVVCLLNNFYPREAKVQWKVDNALQSGNSQESVTEQDSKDSTYSLSSTLTLSKADYEKHKVYACEVTHQGLSSPVTKSFNRGEC |
| 0.74 ratio | 74.8 relative binding (GpH7-A5/GpH7-B3/GpL16-k0 = 100) | 102 relative binding (GpH7-A5/GpH7-B3/GpL16-k0 = 100) | GpH7-A5/GpH7-B3 variant P331_06M/GpL16-k0 (antibody, human IgG1, kappa, Heterodimerized anti-glypican-3 IgG1; P331M (EU) only in the GpH7-B3 chain; also called He Ab) heavy 1: not shown heavy 2: not shown light: DIVMTQSPLSLPVTPGEPASISCQASESLVHSNRNTYLHWYLQKPGQSPQLLIYKVSNRFSGVPDRFSGSGSGTDFTLKISRVEAEDVGVYYCSQNTHVPPTFGQGTKVEIERTVAAPSVFIFPPSDEQLKSGTASVVCLLNNFYPREAKVQWKVDNALQSGNSQESVTEQDSKDSTYSLSSTLTLSKADYEKHKVYACEVTHQGLSSPVTKSFNRGEC |
| 0.7 ratio | 31.7 relative binding (GpH7-A5/GpH7-B3/GpL16-k0 = 100) | 45.1 relative binding (GpH7-A5/GpH7-B3/GpL16-k0 = 100) | GpH7-A5/GpH7-B3 variant P329_20W/GpL16-k0 (antibody, human IgG1, kappa, Heterodimerized anti-glypican-3 IgG1; P329W (EU) only in the GpH7-B3 chain; also called He Ab) heavy 1: not shown heavy 2: not shown light: DIVMTQSPLSLPVTPGEPASISCQASESLVHSNRNTYLHWYLQKPGQSPQLLIYKVSNRFSGVPDRFSGSGSGTDFTLKISRVEAEDVGVYYCSQNTHVPPTFGQGTKVEIERTVAAPSVFIFPPSDEQLKSGTASVVCLLNNFYPREAKVQWKVDNALQSGNSQESVTEQDSKDSTYSLSSTLTLSKADYEKHKVYACEVTHQGLSSPVTKSFNRGEC |
| 0.74 ratio | 74.1 relative binding (GpH7-A5/GpH7-B3/GpL16-k0 = 100) | 99.8 relative binding (GpH7-A5/GpH7-B3/GpL16-k0 = 100) | GpH7-A5/GpH7-B3 variant P331_14T/GpL16-k0 (antibody, human IgG1, kappa, Heterodimerized anti-glypican-3 IgG1; P331T (EU) only in the GpH7-B3 chain; also called He Ab) heavy 1: not shown heavy 2: not shown light: DIVMTQSPLSLPVTPGEPASISCQASESLVHSNRNTYLHWYLQKPGQSPQLLIYKVSNRFSGVPDRFSGSGSGTDFTLKISRVEAEDVGVYYCSQNTHVPPTFGQGTKVEIERTVAAPSVFIFPPSDEQLKSGTASVVCLLNNFYPREAKVQWKVDNALQSGNSQESVTEQDSKDSTYSLSSTLTLSKADYEKHKVYACEVTHQGLSSPVTKSFNRGEC |
| 0.53 ratio | 75.3 relative binding (GpH7-A5/GpH7-B3/GpL16-k0 = 100) | 141 relative binding (GpH7-A5/GpH7-B3/GpL16-k0 = 100) | GpH7-A5/GpH7-B3 variant L328_14T/GpL16-k0 (antibody, human IgG1, kappa, Heterodimerized anti-glypican-3 IgG1; L328T (EU) only in the GpH7-B3 chain; also called He Ab) heavy 1: not shown heavy 2: not shown light: DIVMTQSPLSLPVTPGEPASISCQASESLVHSNRNTYLHWYLQKPGQSPQLLIYKVSNRFSGVPDRFSGSGSGTDFTLKISRVEAEDVGVYYCSQNTHVPPTFGQGTKVEIERTVAAPSVFIFPPSDEQLKSGTASVVCLLNNFYPREAKVQWKVDNALQSGNSQESVTEQDSKDSTYSLSSTLTLSKADYEKHKVYACEVTHQGLSSPVTKSFNRGEC |
| 0.69 ratio | 80.2 relative binding (GpH7-A5/GpH7-B3/GpL16-k0 = 100) | 116 relative binding (GpH7-A5/GpH7-B3/GpL16-k0 = 100) | GpH7-A5/GpH7-B3 variant P331_16H/GpL16-k0 (antibody, human IgG1, kappa, Heterodimerized anti-glypican-3 IgG1; P331H (EU) only in the GpH7-B3 chain; also called He Ab) heavy 1: not shown heavy 2: not shown light: DIVMTQSPLSLPVTPGEPASISCQASESLVHSNRNTYLHWYLQKPGQSPQLLIYKVSNRFSGVPDRFSGSGSGTDFTLKISRVEAEDVGVYYCSQNTHVPPTFGQGTKVEIERTVAAPSVFIFPPSDEQLKSGTASVVCLLNNFYPREAKVQWKVDNALQSGNSQESVTEQDSKDSTYSLSSTLTLSKADYEKHKVYACEVTHQGLSSPVTKSFNRGEC |
| 0.58 ratio | 66 relative binding (GpH7-A5/GpH7-B3/GpL16-k0 = 100) | 114 relative binding (GpH7-A5/GpH7-B3/GpL16-k0 = 100) | GpH7-A5/GpH7-B3 variant P331_07I/GpL16-k0 (antibody, human IgG1, kappa, Heterodimerized anti-glypican-3 IgG1; P331I (EU) only in the GpH7-B3 chain; also called He Ab) heavy 1: not shown heavy 2: not shown light: DIVMTQSPLSLPVTPGEPASISCQASESLVHSNRNTYLHWYLQKPGQSPQLLIYKVSNRFSGVPDRFSGSGSGTDFTLKISRVEAEDVGVYYCSQNTHVPPTFGQGTKVEIERTVAAPSVFIFPPSDEQLKSGTASVVCLLNNFYPREAKVQWKVDNALQSGNSQESVTEQDSKDSTYSLSSTLTLSKADYEKHKVYACEVTHQGLSSPVTKSFNRGEC |
| 0.61 ratio | 49.7 relative binding (GpH7-A5/GpH7-B3/GpL16-k0 = 100) | 80.8 relative binding (GpH7-A5/GpH7-B3/GpL16-k0 = 100) | GpH7-A5/GpH7-B3 variant L328_18N/GpL16-k0 (antibody, human IgG1, kappa, Heterodimerized anti-glypican-3 IgG1; L328N (EU) only in the GpH7-B3 chain; also called He Ab) heavy 1: not shown heavy 2: not shown light: DIVMTQSPLSLPVTPGEPASISCQASESLVHSNRNTYLHWYLQKPGQSPQLLIYKVSNRFSGVPDRFSGSGSGTDFTLKISRVEAEDVGVYYCSQNTHVPPTFGQGTKVEIERTVAAPSVFIFPPSDEQLKSGTASVVCLLNNFYPREAKVQWKVDNALQSGNSQESVTEQDSKDSTYSLSSTLTLSKADYEKHKVYACEVTHQGLSSPVTKSFNRGEC |
